This note sets out measurements from patent US20200024322A1 (Eli Lilly, published 2020).

B1: Example 229 (peptide)
peptide: YXEGTXTSDYSXLDEKAQXEFIXYLIEGGPSSGAPPPS
modifications: Aib2; αMeF(2F)6; αMeL12; K16((2-[2-(2-Amino-ethoxy)-ethoxy]-acetyl)2-(γ-Glu)-CO-(CH2)18-CO2H); Aib19; D-Glu23; C-terminal NH2 (positions counted on this 38-residue peptide)
B2: Example 330 (peptide)
peptide: Y[Aib]EGTFTSDYSILLDEK([AEEA-AEEA-γGlu-C20 diacid])AQ[Aib]AFIEYLIAGGPSSGAPPPS-NH2
modifications: N-terminus assumed
SMILES: CC[C@H](C)[C@H](NC(=O)[C@H](CC(C)C)NC(=O)[C@H](Cc1ccc(O)cc1)NC(=O)[C@H](CCC(=O)O)NC(=O)[C@@H](NC(=O)[C@H](Cc1ccccc1)NC(=O)[C@H](C)NC(=O)C(C)(C)NC(=O)[C@H](CCC(N)=O)NC(=O)[C@H](C)NC(=O)[C@H](CCCCNC(=O)COCCOCCNC(=O)COCCOCCNC(=O)CC[C@H](NC(=O)CCCCCCCCCCCCCCCCCCC(=O)O)C(=O)O)NC(=O)[C@H](CCC(=O)O)NC(=O)[C@H](CC(=O)O)NC(=O)[C@H](CC(C)C)NC(=O)[C@H](CC(C)C)NC(=O)[C@@H](NC(=O)[C@H](CO)NC(=O)[C@H](Cc1ccc(O)cc1)NC(=O)[C@H](CC(=O)O)NC(=O)[C@H](CO)NC(=O)[C@@H](NC(=O)[C@H](Cc1ccccc1)NC(=O)[C@@H](NC(=O)CNC(=O)[C@H](CCC(=O)O)NC(=O)C(C)(C)NC(=O)[C@@H](N)Cc1ccc(O)cc1)[C@@H](C)O)[C@@H](C)O)[C@@H](C)CC)[C@@H](C)CC)C(=O)N[C@@H](C)C(=O)NCC(=O)NCC(=O)N1CCC[C@H]1C(=O)N[C@@H](CO)C(=O)N[C@@H](CO)C(=O)NCC(=O)N[C@@H](C)C(=O)N1CCC[C@H]1C(=O)N1CCC[C@H]1C(=O)N1CCC[C@H]1C(=O)N[C@@H](CO)C(N)=O
B3: Example 232 (peptide)
peptide: YXEGTXTSDXSIXLDXKAQXEFIXYLIEGGPSSGAPPPS
modifications: Aib2; αMeF(2F)6; 4Pal10; αMeL13; Orn16; K17((2-[2-(2-Amino-ethoxy)-ethoxy]-acetyl)2-(γ-Glu)-CO-(CH2)16-CO2H); Aib20; D-Glu24; C-terminal NH2
B4: Example 22 (peptide)
peptide: Y[Aib]EGTFTSDYSI[αMeL]LDEK([AEEA-AEEA-γGlu-C20 diacid])AQ[αMeK]AFIEYLLE[Aib]GPSSGAPPPS-NH2
modifications: N-terminus assumed
SMILES: CC[C@H](C)[C@H](NC(=O)[C@H](Cc1ccccc1)NC(=O)[C@H](C)NC(=O)[C@](C)(CCCCN)NC(=O)[C@H](CCC(N)=O)NC(=O)[C@H](C)NC(=O)[C@H](CCCCNC(=O)COCCOCCNC(=O)COCCOCCNC(=O)CC[C@H](NC(=O)CCCCCCCCCCCCCCCCCCC(=O)O)C(=O)O)NC(=O)[C@H](CCC(=O)O)NC(=O)[C@H](CC(=O)O)NC(=O)[C@H](CC(C)C)NC(=O)[C@](C)(CC(C)C)NC(=O)[C@@H](NC(=O)[C@H](CO)NC(=O)[C@H](Cc1ccc(O)cc1)NC(=O)[C@H](CC(=O)O)NC(=O)[C@H](CO)NC(=O)[C@@H](NC(=O)[C@H](Cc1ccccc1)NC(=O)[C@@H](NC(=O)CNC(=O)[C@H](CCC(=O)O)NC(=O)C(C)(C)NC(=O)[C@@H](N)Cc1ccc(O)cc1)[C@@H](C)O)[C@@H](C)O)[C@@H](C)CC)C(=O)N[C@@H](CCC(=O)O)C(=O)N[C@@H](Cc1ccc(O)cc1)C(=O)N[C@@H](CC(C)C)C(=O)N[C@@H](CC(C)C)C(=O)N[C@@H](CCC(=O)O)C(=O)NC(C)(C)C(=O)NCC(=O)N1CCC[C@H]1C(=O)N[C@@H](CO)C(=O)N[C@@H](CO)C(=O)NCC(=O)N[C@@H](C)C(=O)N1CCC[C@H]1C(=O)N1CCC[C@H]1C(=O)N1CCC[C@H]1C(=O)N[C@@H](CO)C(N)=O
B5: Example 16 (peptide)
peptide: H[Aib]EGTFTSDYSILLDKK([AEEA-AEEA-γGlu-C20 diacid])AQ[Aib]AFIEYLIE[Aib]GPSSGAPPPS-NH2
modifications: N-terminus assumed
SMILES: CC[C@H](C)[C@H](NC(=O)[C@H](Cc1ccccc1)NC(=O)[C@H](C)NC(=O)C(C)(C)NC(=O)[C@H](CCC(N)=O)NC(=O)[C@H](C)NC(=O)[C@H](CCCCNC(=O)COCCOCCNC(=O)COCCOCCNC(=O)CC[C@H](NC(=O)CCCCCCCCCCCCCCCCCCC(=O)O)C(=O)O)NC(=O)[C@H](CCCCN)NC(=O)[C@H](CC(=O)O)NC(=O)[C@H](CC(C)C)NC(=O)[C@H](CC(C)C)NC(=O)[C@@H](NC(=O)[C@H](CO)NC(=O)[C@H](Cc1ccc(O)cc1)NC(=O)[C@H](CC(=O)O)NC(=O)[C@H](CO)NC(=O)[C@@H](NC(=O)[C@H](Cc1ccccc1)NC(=O)[C@@H](NC(=O)CNC(=O)[C@H](CCC(=O)O)NC(=O)C(C)(C)NC(=O)[C@@H](N)Cc1c[nH]cn1)[C@@H](C)O)[C@@H](C)O)[C@@H](C)CC)C(=O)N[C@@H](CCC(=O)O)C(=O)N[C@@H](Cc1ccc(O)cc1)C(=O)N[C@@H](CC(C)C)C(=O)N[C@H](C(=O)N[C@@H](CCC(=O)O)C(=O)NC(C)(C)C(=O)NCC(=O)N1CCC[C@H]1C(=O)N[C@@H](CO)C(=O)N[C@@H](CO)C(=O)NCC(=O)N[C@@H](C)C(=O)N1CCC[C@H]1C(=O)N1CCC[C@H]1C(=O)N1CCC[C@H]1C(=O)N[C@@H](CO)C(N)=O)[C@@H](C)CC
B6: Example 17 (peptide)
peptide: H[Aib]EGTFTSDYSILLDKIAQK([AEEA-AEEA-γGlu-C20 diacid])AFIEYLLE[Aib]GPSSG-NH2
modifications: N-terminus assumed
SMILES: CC[C@H](C)[C@H](NC(=O)[C@H](CCCCN)NC(=O)[C@H](CC(=O)O)NC(=O)[C@H](CC(C)C)NC(=O)[C@H](CC(C)C)NC(=O)[C@@H](NC(=O)[C@H](CO)NC(=O)[C@H](Cc1ccc(O)cc1)NC(=O)[C@H](CC(=O)O)NC(=O)[C@H](CO)NC(=O)[C@@H](NC(=O)[C@H](Cc1ccccc1)NC(=O)[C@@H](NC(=O)CNC(=O)[C@H](CCC(=O)O)NC(=O)C(C)(C)NC(=O)[C@@H](N)Cc1c[nH]cn1)[C@@H](C)O)[C@@H](C)O)[C@@H](C)CC)C(=O)N[C@@H](C)C(=O)N[C@@H](CCC(N)=O)C(=O)N[C@@H](CCCCNC(=O)COCCOCCNC(=O)COCCOCCNC(=O)CC[C@H](NC(=O)CCCCCCCCCCCCCCCCCCC(=O)O)C(=O)O)C(=O)N[C@@H](C)C(=O)N[C@@H](Cc1ccccc1)C(=O)N[C@H](C(=O)N[C@@H](CCC(=O)O)C(=O)N[C@@H](Cc1ccc(O)cc1)C(=O)N[C@@H](CC(C)C)C(=O)N[C@@H](CC(C)C)C(=O)N[C@@H](CCC(=O)O)C(=O)NC(C)(C)C(=O)NCC(=O)N1CCC[C@H]1C(=O)N[C@@H](CO)C(=O)N[C@@H](CO)C(=O)NCC(N)=O)[C@@H](C)CC
B7: Example 247 (peptide)
peptide: B3 peptide with X10Y
modifications: Aib2; αMeF(2F)6; Aib13; Orn16; K17((2-[2-(2-Amino-ethoxy)-ethoxy]-acetyl)2-(γ-Glu)-CO-(CH2)16-CO2H); Aib20; D-Glu24; C-terminal NH2

Substitutions are numbered along the chain they refer to. Numbered stars: 1 amine (or outer) side, 2 acyl side, 3 side chain; on linkers, the order of the positions; unused ones are H or OH. Square brackets hold non-standard residues; d marks the D form. Side chains are listed from the residue outwards. Ends that are not written are not given here. * marks the point of attachment. C20 diacid = O=C(O)CCCCCCCCCCCCCCCCCCC(=O)*; γGlu = O=C(O)[C@H](CCC(=O)[*:2])N[*:1]; αMeL = CC(C)C[C@](C)(N)C(=O)O; αMeK = C[C@](N)(CCCCN)C(=O)O; Dab = NCC[C@H](N)C(=O)O; AEEA = NCCOCCOCC(=O)O; Aib = CC(C)(N)C(=O)O

The target in the first test is T1, human GIP receptor (human, UniProt P48546 22-466).
T1 construct: whole, on cells; also called hGIPR; hGIP-R
T1 sequence (looked up): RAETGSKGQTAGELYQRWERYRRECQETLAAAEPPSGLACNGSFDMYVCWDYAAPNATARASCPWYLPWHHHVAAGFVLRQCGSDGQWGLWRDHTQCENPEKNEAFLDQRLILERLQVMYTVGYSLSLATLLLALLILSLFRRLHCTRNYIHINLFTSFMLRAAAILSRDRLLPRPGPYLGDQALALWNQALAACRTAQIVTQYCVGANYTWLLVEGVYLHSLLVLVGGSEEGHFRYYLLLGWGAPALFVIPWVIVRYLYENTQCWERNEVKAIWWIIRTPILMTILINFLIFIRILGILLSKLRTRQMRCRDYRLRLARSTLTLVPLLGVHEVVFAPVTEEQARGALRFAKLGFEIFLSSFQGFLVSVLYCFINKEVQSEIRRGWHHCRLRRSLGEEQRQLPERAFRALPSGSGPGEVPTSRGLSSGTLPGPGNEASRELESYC
Kind of test: [125I]-GIP competition SPA, hGIPR membranes. As for the experimental part: The binding buffer contains 25 mM HEPES, pH 7.4, 2.5 mM CaCl₂, 1 mM MgCl₂, 0.1% (w/v) bacitracin, 0.003% (w/v) TWEEN®-20, and Roche Complete™ Protease Inhibitors without EDTA. […] Plates are sealed and mixed on a plate shaker (setting 6) for 1 minute and read with a PerkinElmer Trilux MicroBeta® scintillation counter after 2.5 to 12 hours of incubation/settling time at room temperature.
(§1) Data are analyzed using four-parameter (curve maximum, curve minimum, IC₅₀, Hill slope) nonlinear regression routines (Genedata Screener, version 12.0.4, Genedata AG, Basal, Switzerland). […] Values for Kᵢ are reported as the geometric mean, with error expressed as the standard error of the mean (SEM) and n is equal to the number of independent replicates (determined in assays performed on different days). Geometric Means are calculated as follows: […]
What is called Ki is the equilibrium dissociation constant of an inhibitor or competing ligand from its target. Read a low Ki as tighter binding. Consider B1, for which the affinity corresponds to a Ki of 2.47 nM.
Take B2: the affinity corresponds to a Ki of 0.114 nM.
The molecule B3 gave a Ki of 0.0544 nM.

In another test the target is T2, human glucagon receptor (human, UniProt P47871 26-477).
T2 construct: whole, on cells; Used as crude membranes of stably transfected HEK293 cells; also called hGcgR; hGLcgR
T2 sequence (P47871 26-477): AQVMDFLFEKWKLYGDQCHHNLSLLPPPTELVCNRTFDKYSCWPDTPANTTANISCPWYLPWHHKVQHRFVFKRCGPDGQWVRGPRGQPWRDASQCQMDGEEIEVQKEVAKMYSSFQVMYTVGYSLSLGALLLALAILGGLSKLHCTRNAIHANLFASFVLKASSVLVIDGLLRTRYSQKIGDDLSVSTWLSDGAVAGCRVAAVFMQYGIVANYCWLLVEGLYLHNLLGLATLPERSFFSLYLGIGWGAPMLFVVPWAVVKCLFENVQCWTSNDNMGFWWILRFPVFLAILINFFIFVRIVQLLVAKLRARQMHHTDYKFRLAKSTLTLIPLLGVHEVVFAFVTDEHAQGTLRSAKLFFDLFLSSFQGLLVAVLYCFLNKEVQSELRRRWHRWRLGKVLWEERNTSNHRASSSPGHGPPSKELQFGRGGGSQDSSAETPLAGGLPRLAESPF
Kind of test: SPA, [125I]-Gcg displacement, hGcgR membranes.
H[Aib]EGTFTSDYSI[αMeL]LDKK([Dab-AEEA-Dab-AEEA-C20 diacid])AQ[αMeK]AFIQYLLA[Aib]GPSSGAPKPS-NH2 [Example 18] gave an inhibition constant (Ki) of 50.1 nM.
Still for that read-out and setting: the figure for H[Aib]EGTFTSDYSI[αMeL]LDKK([Dab-AEEA-Dab-AEEA-C20 diacid])AQ[αMeK]AFIQYLLA[Aib]GPSSGAPPPS-NH2 [Example 19] is 60.5 nM; for B4 it is 53.4 nM; for B5 it is 371 nM.
On the same count and under the same terms, under B6 stands 261 nM.

For a further test, the target named is T3, human GLP-1 receptor (human, UniProt P43220 24-463).
T3 construct: whole, on cells; also called hGLP-1R; hGLP1R
Kind of test: [125I]-GLP-1 competition SPA, hGLP-1R membranes. As for the experimental part: The binding buffer contains 25 mM HEPES, pH 7.4, 2.5 mM CaCl₂, 1 mM MgCl₂, 0.1% (w/v) bacitracin, 0.003% (w/v) TWEEN®-20, and Roche Complete™ Protease Inhibitors without EDTA.
as §1
The molecule B1 returned a Ki of 36.2 nM.
B3 yielded an inhibition constant Ki of 5.62 nM.
Still for that read-out and setting: under B7 stands 4.39 nM.

In the next test the target is T4, human GLP-1 receptor (human, UniProt P43220 24-463).
T4 construct: whole, on cells; Used as crude membranes of stably transfected HEK293 cells; also called hGLP1R; hGLP-1R
The test can be described thus: SPA, [125I]-GLP-1 displacement, hGLP-1R membranes.
In the case of H[Aib]EGTFTSDYSI[αMeL]LDKK([Dab-AEEA-Dab-AEEA-C20 diacid])AQ[αMeK]AFIQYLLA[Aib]GPSSGAPKPS-NH2 [Example 18], the Ki amounted to 0.319 nM.
The same measure, in the same setting: under H[Aib]EGTFTSDYSI[αMeL]LDKK([Dab-AEEA-Dab-AEEA-C20 diacid])AQ[αMeK]AFIQYLLA[Aib]GPSSGAPPPS-NH2 [Example 19] stands 0.24 nM.
B4 came in with an inhibitory constant (Ki) of 23.1 nM. This Ki is about 96-fold higher than that of the molecule before.
On the same count and under the same terms, the figure for B5 is 2.78 nM.
As to B6, the Ki amounted to 7.63 nM. Against the preceding molecule, the Ki is about 2.7-fold higher.

The next test deals with T5, human GIP receptor (human, UniProt P48546 22-466).
T5 construct: whole, on cells; Used as crude membranes of stably transfected CHO cells; also called hGIPR
T5 sequence (looked up): T1 sequence (looked up)
The test can be described thus: SPA, [125I]-GIP displacement, hGIPR membranes.
Regarding H[Aib]EGTFTSDYSI[αMeL]LDKK([Dab-AEEA-Dab-AEEA-C20 diacid])AQ[αMeK]AFIQYLLA[Aib]GPSSGAPKPS-NH2 [Example 18], affinity was put at a Ki of 0.0798 nM.
Molecule H[Aib]EGTFTSDYSI[αMeL]LDKK([Dab-AEEA-Dab-AEEA-C20 diacid])AQ[αMeK]AFIQYLLA[Aib]GPSSGAPPPS-NH2 [Example 19] displayed an inhibition constant (Ki) of 0.0518 nM.
The molecule B4 gave an inhibition constant (Ki) of 0.624 nM. This Ki is about 12-fold higher than that of the molecule before.
In the case of B5, affinity was put at a Ki of 0.0841 nM. Against the preceding molecule, the Ki is about 7.4-fold lower.
Molecule B6 displayed an inhibition constant (Ki) of 0.606 nM.
